The source of these data is article PMC11236828 (Bioresources and Bioprocessing, 2024).

For orientation: Km means the concentration of substrate that gives half-maximal velocity. Broadly, the kcat is the number of substrate molecules converted per active site and unit of time at saturation. Broadly, the kcat/Km is the second-order rate constant that governs catalysis at low substrate concentration.

The target of series [1] is T1, Formate oxidase (FOx) (Aspergillus oryzae, UniProt Q2UD26).
T1 construct: gene AO090012000349; synthetic gene in pET28a(+) (NdeI-HindIII), expressed in E. coli BL21(DE3), purified on Ni-Sepharose; His tag cleavage not mentioned; contains FAD / 8-formyl FAD
T1 sequence (Q2UD26 2-578): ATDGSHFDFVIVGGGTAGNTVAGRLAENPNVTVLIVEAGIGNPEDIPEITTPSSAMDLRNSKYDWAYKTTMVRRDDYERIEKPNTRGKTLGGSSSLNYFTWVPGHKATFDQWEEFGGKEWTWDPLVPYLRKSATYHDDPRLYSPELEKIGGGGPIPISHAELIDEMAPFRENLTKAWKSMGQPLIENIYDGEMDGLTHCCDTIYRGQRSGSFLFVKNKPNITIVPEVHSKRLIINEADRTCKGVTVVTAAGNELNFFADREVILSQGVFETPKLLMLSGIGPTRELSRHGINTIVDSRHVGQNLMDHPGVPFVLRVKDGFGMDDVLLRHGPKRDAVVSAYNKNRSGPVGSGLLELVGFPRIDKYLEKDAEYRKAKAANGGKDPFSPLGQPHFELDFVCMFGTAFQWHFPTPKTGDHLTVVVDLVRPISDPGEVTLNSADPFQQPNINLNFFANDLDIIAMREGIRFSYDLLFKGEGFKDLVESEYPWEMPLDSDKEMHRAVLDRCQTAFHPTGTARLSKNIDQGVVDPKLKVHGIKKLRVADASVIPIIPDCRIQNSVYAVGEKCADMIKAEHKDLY
The series can be described thus: UV-visible absorption spectra of purified enzyme. The settings on record: 4 °C. It is filed as binding.

Substrate in series [2]: O=CO
The series can be described thus: purified protein. Particulars: 50 mM sodium acetate pH 5.0, 25 °C, air oxygen, enzyme 14 h after purification (8-formyl FAD formed).

As for `Cc1cc2nc3c(=O)[nH]c(=O)nc-3n(C[C@H](O)[C@H](O)[C@H](O)COP(=O)(O)OP(=O)(O)OC[C@H]3O[C@@H](n4cnc5c(N)ncnc54)[C@H](O)[C@@H]3O)c2cc1C` [FAD], the “UV-visible absorption spectra of purified enzyme” value in series [1] (copurified cofactor, autocatalytically converted to 8-formyl FAD) is reported as “conversion of FAD to 8-formyl FAD within the active site of FOx”.

In the case of `Cc1cc2nc3c(=O)[nH]c(=O)nc-3n(C[C@H](O)[C@H](O)[C@H](O)COP(=O)(O)OP(=O)(O)OC[C@H]3O[C@@H](n4cnc5c(N)ncnc54)[C@H](O)[C@@H]3O)c2cc1C=O` [8-formyl FAD], the “UV-visible absorption spectra of purified enzyme” value in series [1] (formed in situ from bound FAD, 14 h) is on record as “conversion of FAD to 8-formyl FAD within the active site of FOx”.

B1: Formate oxidase (FOx) (Aspergillus oryzae RIB40) (protein)
chain: T1 sequence (Q2UD26 2-578)
As to B1, in series [2], the Km is listed as 96 ± 3.1 mM, the kcat was found to be 102 s⁻¹ and the kcat/Km was found to be 1100 M⁻¹ s⁻¹.
